# Columns and labels:
# [1] = molecular target: T1, human HER3 (Homo sapiens, UniProt P21860); test: BLI binding to HER3 in absence of NRG1 ('closed' conformation)
# Experimental: (§1) In further experiments, anti-HER3 antibodies were analysed in order to determine the affinity of binding to human HER3 in the context of a human HER3:human NRG1 complex (that is, HER3 provided in the ligand-bound, ‘open’ conformation), as compared to the affinity of binding to human HER3 in the absence of NRG1 complex (that is, HER3 provided in the unbound, ‘closed’ conformation).
# (§2) Binding of anti-HER3 antibodies to human HER3 was evaluated by BLI. Briefly, anti-Human IgG Capture (AHC) sensors (ForteBio) were loaded with anti-HER3 IgG antibodies (25 nM). Kinetic measurements were performed in absence or presence of NRG1. NRG1 was used at 1:1 molar ratio with HER3 wherein the complex was allowed to form at RT for 2 h. His-tagged human HER3 or HER3-NRG1 complexes were loaded to antibody coated AHC sensors at different concentrations for 120 s, followed by a 120 s dissociation time. All measurements were performed at 25° C. with agitation at 1000 rpm. Sensorgrams were referenced for buffer effects and then analyzed using the Octet QK384-software (ForteBio). Kinetic responses were globally fitted using a one-site binding model to obtain values for association (Kon), dissociation (Koff) rate constants and the equilibrium dissociation constant (KD).
# [2] = molecular target: human HER3:human NRG1 complex (Homo sapiens, UniProt P21860); test: BLI binding to HER3-NRG1 complex ('open' conformation); conditions: presence of NRG1 (1:1 molar ratio)
# Experimental: as §1, §2
# [3] = molecular target: T1, human HER3; test: Global affinity study, Bio-Layer Interferometry (Octet QK384); format: binding; conditions: BLI, His-tagged human HER3, IgG1 format, 25° C.; read-out: Affinity (KD)
# Experimental: The anti-HER3 antibody clones in IgG1 format were analysed for binding affinity to human HER3. Bio-Layer Interferometry (BLI) experiments were performed using the Octet QK384 system (ForteBio). anti-Human IgG Capture (AHC) Octet sensor tips (Pall ForteBio, USA) were used to anti-HER3 antibodies (25 nM). All measurements were performed at 25° C. with agitation at 1000 rpm. Kinetic measurements for antigen binding were performed by loading His-tagged human HER3 antigens at different concentrations for 120 s, followed by a 120 s dissociation time by transferring the biosensors into assay buffer containing wells. Sensograms were referenced for buffer effects and then fitted using the Octet QK384 user software (Pall ForteBio, USA). Kinetic responses were subjected to a global fitting using a one site binding model to obtain values for association (Kon), dissociation (Koff) rate constants and the equilibrium dissociation constant (KD). Only curves that could be reliably fitted with the software (R^2>0.90) were included in the analysis.
# Bio-Layer Interferometry (BLI) experiments were performed using the Octet QK384 system (ForteBio). […] Binding was detected using titrated HIS-tagged human HER3 in steps of baseline (60 s), loading (120 s), baseline2 (60 s), association (120 s), dissociation (FcA 120 s, FcB 600 s) and regeneration (15 s). Sensorgrams were analysed as described in Example 3.3. […]
# [4] = molecular target: T1, human HER3; test: Immunohistochemistry on frozen human tissue arrays; parameters: Arrays of commercially-available frozen tissue sections were obtained; from tissue; host or cells: frozen human normal and malignant tissue section arrays; conditions: mIgG2a format
# Experimental: Anti-HER3 antibody 10D1F in mIgG2a format was evaluated for its ability to be used in immunohistochemistry for the detection of human HER3 protein.
# Processing of sections was performed using Bond reagents (Leica Biosystems). Arrays of commercially-available frozen tissue sections were obtained. Slides were dried in a desiccator for 10 min and then subjected to the following treatments, with water washes and/or TBS-T rinses between steps: (i) fixation by treatment with 100% acetone for 10 min at room temperature; (ii) endogenous peroxidase blocking by treatment with 3% (v/v) H2O2 for 15 min at room temperature; (iii) blocking by treatment with 10% goat serum for 30 min at room temperature, (iv) incubation with 10D1 F-mIgG2a at 1:250 dilution of a 6.2 mg/ml solution overnight at 4° C., (v) incubation with HRP-polymer conjugated goat anti-mouse antibody for 30 min at room temperature, and (vi) development with Bond Mixed DAB Refine for 5 min at room temperature, followed by rinsing with deionised water and 1× Bond Wash to stop the reaction.
# Slides were then dehydrated, mounted in synthetic mounting media and scanned with high resolution.
# [5] = system: cynomolgus macaque HER3; test: ELISA cross-reactivity, cynomolgus macaque HER3; format: binding
# Experimental: (§3) ELISAs were used to determine the binding specificity of the antibodies. The antibodies were analysed for binding to human HER3 polypeptide, as well as respective mouse, rat and monkey homologues of HER3 (Sino Biological Inc., China). The antibodies were also analysed for their ability to bind to human EGFR and human HER2 (Sino Biological Inc., China).
# (§4) ELISAs were carried out according to standard protocols. Briefly, 96-well plates (Nunc, Denmark) were coated with 0.1 μg/ml of target polypeptide in phosphate-buffered saline (PBS) for 16 h at 4° C. After blocking for 1 h with 1% BSA in Tris buffer saline (TBS) at room temperature, the anti-HER3 antibody was serially diluted with the highest concentration being 10 μg/ml, and added to the plate. Post 1 h incubation at room temperature, plates were washed three times with TBS containing 0.05% Tween 20 (TBS-T) and were then incubated with a HRP-conjugated anti-His antibody (Life Technologies, Inc., USA) for 1 h at room temperature. After washing, plates were developed with colorimetric detection substrate 3,3′,5,5′-tetramethylbenzidine (Turbo-TMB; Pierce, USA) for 10 min. The reaction was stopped with 2M H2SO4, and OD was measured at 450 nm. […]
# [6] = molecular target: T2, mouse HER3 (Mus musculus, UniProt Q61526); test: ELISA cross-reactivity, mouse HER3; format: binding
# T2 construct: purchased Sino Biological Inc., China
# Experimental: as §3, §4
# [7] = system: A549 cell-line derived mouse model of lung adenocarcinoma; test: A549 cell-line derived xenograft model; format: in vivo; conditions: A549, NPG mice, IP weekly 500 μg, 4 doses
# [8] = molecular target: T3, human EGFR (Homo sapiens, UniProt P00533); test: ELISA specificity, human EGFR; format: binding; conditions: antibody up to 10 μg/ml
# T3 construct: purchased Sino Biological Inc., China
# Experimental: as §3
# (§5) ELISAs were carried out according to standard protocols. Briefly, 96-well plates (Nunc, Denmark) were coated with 0.1 μg/ml of target polypeptide in phosphate-buffered saline (PBS) for 16 h at 4° C. After blocking for 1 h with 1% BSA in Tris buffer saline (TBS) at room temperature, the anti-HER3 antibody was serially diluted with the highest concentration being 10 μg/ml, and added to the plate. Post 1 h incubation at room temperature, plates were washed three times with TBS containing 0.05% Tween 20 (TBS-T) and were then incubated with a HRP-conjugated anti-His antibody (Life Technologies, Inc., USA) for 1 h at room temperature. […] The reaction was stopped with 2M H2SO4, and OD was measured at 450 nm.
# (§6) The antibodies were analysed for their ability to bind to human HER3 polypeptide as well as human HER1 (EGFR) and human HER2 (Sino Biological Inc., China). […]
# (§7) ELISAs were carried out according to standard protocols. […] The reaction was stopped with 2M H2SO4, and OD was measured at 450 nm.
# [9] = molecular target: T4, rat HER3 (Rattus norvegicus, UniProt Q62799); test: ELISA cross-reactivity, rat HER3; format: binding
# T4 construct: purchased Sino Biological Inc., China
# Experimental: as §3, §4
# [10] = molecular target: T5, human HER2 (Homo sapiens, UniProt P04626); test: ELISA specificity, human HER2; format: binding; conditions: antibody up to 10 μg/ml
# T5 construct: purchased Sino Biological Inc., China
# Experimental: as §3, §5, §6, §7
# [11] = clinical, literature, cited from earlier work
# T4 sequence (Q62799 20-1339): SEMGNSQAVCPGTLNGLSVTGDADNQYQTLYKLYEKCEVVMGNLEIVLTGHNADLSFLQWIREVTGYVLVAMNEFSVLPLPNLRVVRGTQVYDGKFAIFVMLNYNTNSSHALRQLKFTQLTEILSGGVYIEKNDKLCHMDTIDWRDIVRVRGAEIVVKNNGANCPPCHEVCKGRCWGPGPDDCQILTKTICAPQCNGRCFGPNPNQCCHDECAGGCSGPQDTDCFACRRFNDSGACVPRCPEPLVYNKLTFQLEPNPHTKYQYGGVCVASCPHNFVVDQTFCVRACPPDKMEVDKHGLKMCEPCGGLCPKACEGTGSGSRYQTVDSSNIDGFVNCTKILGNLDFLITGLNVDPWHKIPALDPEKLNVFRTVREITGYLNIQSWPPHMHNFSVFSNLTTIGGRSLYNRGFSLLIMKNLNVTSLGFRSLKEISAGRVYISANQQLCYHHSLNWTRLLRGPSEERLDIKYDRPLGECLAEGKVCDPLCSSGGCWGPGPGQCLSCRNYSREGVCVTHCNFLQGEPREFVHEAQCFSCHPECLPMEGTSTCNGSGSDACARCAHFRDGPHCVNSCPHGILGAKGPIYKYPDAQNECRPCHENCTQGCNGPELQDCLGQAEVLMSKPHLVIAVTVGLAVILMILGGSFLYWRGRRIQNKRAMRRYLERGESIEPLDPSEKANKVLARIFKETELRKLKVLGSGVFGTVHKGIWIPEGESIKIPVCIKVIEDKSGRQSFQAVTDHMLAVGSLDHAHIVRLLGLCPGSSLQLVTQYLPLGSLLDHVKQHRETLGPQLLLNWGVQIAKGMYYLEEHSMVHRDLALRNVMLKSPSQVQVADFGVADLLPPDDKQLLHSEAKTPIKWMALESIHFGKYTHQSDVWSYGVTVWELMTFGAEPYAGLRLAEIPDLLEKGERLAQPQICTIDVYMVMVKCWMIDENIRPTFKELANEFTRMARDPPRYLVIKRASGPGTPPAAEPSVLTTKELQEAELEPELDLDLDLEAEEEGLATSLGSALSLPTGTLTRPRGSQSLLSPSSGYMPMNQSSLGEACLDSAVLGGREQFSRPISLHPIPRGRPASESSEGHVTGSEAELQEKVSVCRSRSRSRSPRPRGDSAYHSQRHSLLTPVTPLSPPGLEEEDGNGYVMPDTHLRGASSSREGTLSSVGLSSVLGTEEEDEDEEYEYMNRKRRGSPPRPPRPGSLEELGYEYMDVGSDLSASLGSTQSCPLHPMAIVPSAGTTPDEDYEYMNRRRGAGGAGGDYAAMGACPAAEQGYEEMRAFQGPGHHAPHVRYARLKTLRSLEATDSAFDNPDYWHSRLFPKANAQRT
# T2 sequence (Q61526 20-1339): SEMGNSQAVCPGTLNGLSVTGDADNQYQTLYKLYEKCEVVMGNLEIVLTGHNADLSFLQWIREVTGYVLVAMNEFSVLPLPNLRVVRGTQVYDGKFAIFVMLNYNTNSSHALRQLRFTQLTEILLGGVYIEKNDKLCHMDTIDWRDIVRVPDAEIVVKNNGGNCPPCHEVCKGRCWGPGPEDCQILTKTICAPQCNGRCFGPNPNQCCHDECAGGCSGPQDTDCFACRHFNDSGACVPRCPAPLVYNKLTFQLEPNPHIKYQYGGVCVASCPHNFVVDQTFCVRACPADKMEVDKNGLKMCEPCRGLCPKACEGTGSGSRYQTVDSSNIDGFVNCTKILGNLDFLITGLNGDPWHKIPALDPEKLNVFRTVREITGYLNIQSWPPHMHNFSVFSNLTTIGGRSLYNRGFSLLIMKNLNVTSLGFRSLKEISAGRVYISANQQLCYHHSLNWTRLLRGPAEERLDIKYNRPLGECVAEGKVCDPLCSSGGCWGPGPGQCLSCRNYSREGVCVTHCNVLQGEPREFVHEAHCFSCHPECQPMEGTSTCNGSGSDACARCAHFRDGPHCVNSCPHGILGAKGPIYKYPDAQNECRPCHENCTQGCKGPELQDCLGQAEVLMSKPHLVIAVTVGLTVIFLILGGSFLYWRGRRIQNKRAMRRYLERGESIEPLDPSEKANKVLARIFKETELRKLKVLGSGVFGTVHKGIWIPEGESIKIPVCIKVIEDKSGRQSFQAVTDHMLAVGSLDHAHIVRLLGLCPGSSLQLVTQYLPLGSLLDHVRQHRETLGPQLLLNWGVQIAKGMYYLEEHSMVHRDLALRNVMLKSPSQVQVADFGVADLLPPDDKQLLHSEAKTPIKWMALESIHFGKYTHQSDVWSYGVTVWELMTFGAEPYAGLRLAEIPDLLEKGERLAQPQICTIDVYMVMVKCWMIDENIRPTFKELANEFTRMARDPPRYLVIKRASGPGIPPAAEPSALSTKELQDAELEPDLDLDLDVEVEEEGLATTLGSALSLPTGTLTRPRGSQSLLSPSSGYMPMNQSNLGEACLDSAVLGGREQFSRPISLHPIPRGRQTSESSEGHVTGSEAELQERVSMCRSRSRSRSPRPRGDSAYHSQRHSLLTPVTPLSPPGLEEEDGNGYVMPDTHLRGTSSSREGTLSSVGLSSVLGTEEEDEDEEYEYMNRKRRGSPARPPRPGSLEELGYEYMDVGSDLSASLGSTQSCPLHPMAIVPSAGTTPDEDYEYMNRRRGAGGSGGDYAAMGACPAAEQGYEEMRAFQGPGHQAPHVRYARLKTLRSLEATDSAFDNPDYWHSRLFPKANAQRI
molecule,measurement,setting,value
"10D1_c89: clone 10D1F comprises VH of SEQ ID NO:36 and VL of SEQ ID NO:83 (antibody, V domains shown) VH: QVQLQESGPGLVKPSQTLSLTCTVSGYSITSGYSWHWIRQHPGKGLEWIGSIRYSGGTDYNPSLKSLVTISADTSKNQFSLKLSSVTAADTAVYYCARMTTAPWYPFDYWGQGTTVTVSS VL: DIQMTQSPSSVSASVGDRVTITCKASQIVGSNVAWYQQKPGKAPEPLIYSASYLYSGVPSRFSGSGSGTDFTLTISSLQPEDFATYYCQQYSSHPLTFGQGTKLEIK",affinity of binding to human HER3,[1],sub-picomolar affinity
same,affinity of binding to human HER3,[2],sub-picomolar affinity
same,Kd,[3],0.0726 nM
same,immunohistochemical staining of malignant and normal human tissue,[4],"preferentially stained malignant human tissue sections, with low cross-reactivity to normal tissue"
"4-35-B2: anti-HER3 antibody clone, VH SEQ ID NO:127, VL SEQ ID NO:135 (antibody, V domains shown) VH: EIQLQQSGPELVKPGASVKVSCKASGYSFTDYNMYWVKQSHGKSLEWIGHINPYNGGTTYNQKFKGRATLTVDKSSSTAFMHLNSLTSEDSAVYFCVSLRWGAMDYWGQGTSVTVSS VL: QIVLTQSPALMSASPGEKVTMTCSASSSVSYMYWYQQKPRSSPKPWIYLTSNLASGVPARFSGSGSGTSYSLTISSMEAEDAATYYCQQWNSNPYTFGGGTKLEIK",binding / cross-reactivity with cynomolgus macaque HER3,[5],substantial cross-reactivity
same,binding / cross-reactivity with mouse HER3,[6],substantial cross-reactivity
same,inhibition of tumor growth,[7],~63%
same,binding to human EGFR (HER1),[8],found to bind
same,binding / cross-reactivity with rat HER3,[9],substantial cross-reactivity
same,binding to human HER2,[10],found to bind
"MM-121: anti-HER3 antibody blocking binding of heregulin (NRG) to HER3 (antibody, chains of the INN, looked up) heavy: EVQLLESGGGLVQPGGSLRLSCAASGFTFSHYVMAWVRQAPGKGLEWVSSISSSGGWTLYADSVKGRFTISRDNSKNTLYLQMNSLRAEDTAVYYCTRGLKMATIFDYWGQGTLVTVSSASTKGPSVFPLAPCSRSTSESTAALGCLVKDYFPEPVTVSWNSGALTSGVHTFPAVLQSSGLYSLSSVVTVPSSNFGTQTYTCNVDHKPSNTKVDKTVERKCCVECPPCPAPPVAGPSVFLFPPKPKDTLMISRTPEVTCVVVDVSHEDPEVQFNWYVDGVEVHNAKTKPREEQFNSTFRVVSVLTVVHQDWLNGKEYKCKVSNKGLPAPIEKTISKTKGQPREPQVYTLPPSREEMTKNQVSLTCLVKGFYPSDIAVEWESNGQPENNYKTTPPMLDSDGSFFLYSKLTVDKSRWQQGNVFSCSVMHEALHNHYTQKSLSLSPG light: QSALTQPASVSGSPGQSITISCTGTSSDVGSYNVVSWYQQHPGKAPKLIIYEVSQRPSGVSNRFSGSKSGNTASLTISGLQTEDEADYYCCSYAGSSIFVIFGGGTKVTVLGQPKAAPSVTLFPPSSEELQANKATLVCLVSDFYPGAVTVAWKADGSPVKVGVETTKPSKQSNNKYAASSYLSLTPEQWKSHRSYSCRVTHEGSTVEKTVAPAECS",T½ (terminal half life),[11],10.5 days
same,Cmax (μg/ml) normalised to per mg/kg dosed,[11]; normalised to per mg/kg dosed,24 to 25 µg/mL
